These results are taken from patent US20110165161A1, “ANTI-EPCAM ANTIBODIES THAT INDUCE APOPTOSIS OF CANCER CELLS AND METHODS USING SAME” (priority 2009, published 2011).

For test [1], the system named is COLO 205 colon cancer cells. Briefly: Cytotoxicity of anti-EpCAM antibodies in combination with oxaliplatin in COLO 205. Format: cell-based, human. As to conditions: No mAb added, 24 hr. Here is the method: Oxaliplatin, combined with infusional administration of 2 other chemotherapy drugs, 5-fluorouracil/leucovorin (5-FU/LV), is now considered as one of the as first-line treatments for people with advanced carcinoma of the colon or rectum (André et al. (2004) N Engl J Med 350(23):2343-2351). To test the cytotoxicity of anti-EpCAM antibodies in the presence of oxaliplatin, 1×10^5 COLO 205 cells were seeded to each well of a 96-well plate, and then 0.03, 0.3 and 3 μg/ml of anti-EpCAM or control (9E10) mAbs in combination with oxaliplatin at concentration of 0, 0.01, 0.1, and 1 μg/ml diluted in the medium were added into the cells. After a 24-hr incubation at 37° C., the cells were stained with 0.3 μl of FITC-conjugated Annexin V (Strong Biotech Corp. Cat. No. AVK250) in 50 μl Annexin V binding buffer (Strong Biotech Corp. Cat. No. AVK250) at RT for 20 min. After wash, the cells were then stained with 0.3 μl of propidium iodide in 200 μl Annexin V binding buffer. Annexin V and Propidium Iodide were used as a joint indicator for measuring cell death. The data were acquired with BD FACSCalibur based on an acquisition of 3,000-5,000 cells and analyzed with the Cell Quest software. The combined percentages of the Annexin V+/PI+, Annexin V+/PI− and Annexin V−/PI+populations were considered as dead cells.

Test [2] has as its target T1, EGFI-Cr1 N37R (human).
T1 construct: not shown: The fused constant region of human immunoglobulin gamma 1 heavy chain (Cr1)
T1 chain: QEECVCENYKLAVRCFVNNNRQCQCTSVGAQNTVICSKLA
The test is described as follows: direct ELISA, coated EGFI-Cr1 fusion, 0.1 µg/ml antibody. Here is the method: (§1) A direct ELISA was used for testing the reactivity of anti-EpCAM antibodies toward variant EpCAM mutants. Briefly, purified EpCAM EGF-1 fusion proteins (WT, Q24A, E25K, E26D, A35T, N37R, F39A, V40E, N41A, N42E, N43A, R44G, Q45A, Q47A or T49A) and irrelevant control (CEA-Cr1) were pre-diluted to 0.5 μg/ml in coating buffer (8.4 g NaHCO₃, 3.4 g Na₂CO₃ in 1 L H₂O, pH 9.5) and aliquoted (100 μl/well) into 96-well plates. […] Plates were then washed 3 times with PBST followed by the addition of the enzyme substrate TMB (BD Biosciences, Cat. No. 555214). […] The optical densities at 450 nm wavelength were measured on an ELISA plate reader.

Test [3] concerns the target T2, EGFI-Cr1 Q24A (human, UniProt P16422 25-63).
T2 construct: not shown: The fused constant region of human immunoglobulin gamma 1 heavy chain (Cr1)
T2 chain: T1 chain with Q1A, R14N
The test is described as above. Here is the method: as §1

Test [4] has as its target T3, EGFI-Cr1 Q47A (human, UniProt P16422 24-63).
T3 construct: not shown: the constant region of human immunoglobulin gamma 1 heavy chain (Cr1) fused at the C-terminus
T3 chain: T1 chain with R14N, Q24A
The description is as above. As to the method:
as §1

In test [5] the target is T4, EGFI-Cr1 V40E (human).
T4 construct: not shown: The fused constant region of human immunoglobulin gamma 1 heavy chain (Cr1)
T4 chain: T1 chain with R14N, V17E
The test is described as above. As to the method:
as §1

For test [6], the target named is T5, EGFI-Cr1 N43A (human, UniProt P16422 24-63).
T5 construct: not shown: the constant region of human immunoglobulin gamma 1 heavy chain (Cr1) fused at the C-terminus
T5 chain: T1 chain with R14N, N20A
Described as above. Here is the method: as §1

Test [7] addresses T6, EGFI-Cr1 R44G (human, UniProt P16422 24-63).
T6 construct: not shown: the constant region of human immunoglobulin gamma 1 heavy chain (Cr1) fused at the C-terminus
T6 chain: T1 chain with R14N, R21G
The description is as above. As to the method: as §1

Test [8] deals with T7, EGFI-Cr1 N41A (human, UniProt P16422 24-63).
T7 construct: not shown: The fused constant region of human immunoglobulin gamma 1 heavy chain (Cr1)
T7 chain: T1 chain with R14N, N18A
Described as above. Here is the method: as §1

In test [9] the target is T8, EGFI-Cr1 wild type (first EGF-like repeat of human EpCAM fused to the constant region of human immunoglobulin … (human, UniProt P01857-1 99-330 = IgG part)).
T8 construct: cDNA covered aa 1-63; Expressed in COS-7 cells; also called WT; EpCAM EGF-1 fusion protein WT
Described as above. Here is the method:
as §1

The target in test [10] is T9, EGFI-Cr1 E25K (human, UniProt P16422 24-63).
T9 construct: not shown: The fused constant region of human immunoglobulin gamma 1 heavy chain (Cr1)
T9 chain: T1 chain with E2K, R14N
The test is described as above. As to the method: as §1

Test [11] addresses T10, EGFI-Cr1 E26D (human, UniProt P16422 24-63).
T10 construct: not shown: The fused constant region of human immunoglobulin gamma 1 heavy chain (Cr1)
T10 chain: T1 chain with E3D, R14N
Described as above. Here is the method:
as §1

The target of test [12] is T11, EGFI-Cr1 T49A (human, UniProt P16422 24-63).
T11 construct: not shown: the constant region of human immunoglobulin gamma 1 heavy chain (Cr1) fused at the C-terminus
T11 chain: T1 chain with R14N, T26A
The description is as above. Here is the method: as §1

The target in test [13] is T12, EGFI-Cr1 N42E (human, UniProt P16422 24-63).
T12 construct: not shown: the constant region of human immunoglobulin gamma 1 heavy chain (Cr1) fused at the C-terminus
T12 chain: T1 chain with R14N, N19E
The description is as above. As to the method: as §1

Test [14] addresses T13, EGFI-Cr1 F39A (human, UniProt P16422 24-63).
T13 construct: not shown: The fused constant region of human immunoglobulin gamma 1 heavy chain (Cr1)
T13 chain: T1 chain with R14N, F16A
The test is described as above. Here is the method: as §1

In test [15] the target is T14, EGFI-Cr1 Q45A (human, UniProt P16422 24-63).
T14 construct: not shown: the constant region of human immunoglobulin gamma 1 heavy chain (Cr1) fused at the C-terminus
T14 chain: T1 chain with R14N, Q22A
The description is as above. Here is the method:
as §1

The target of test [16] is T15, EGFI-Cr1 A35T (human, UniProt P16422 24-63).
T15 construct: not shown: The fused constant region of human immunoglobulin gamma 1 heavy chain (Cr1)
T15 chain: T1 chain with A12T, R14N
The description is as above. As to the method: as §1

Where a chain is given by its changes, count along the chain named.

As to `O=C1[O][Pt]2([NH][C@@H]3CCCC[C@H]3[NH]2)[O]C1=O` [Oxaliplatin, reference compound], the figures for the “% of Annexin V + PI staining (untreated background subtracted)” value in test [1] (oxaliplatin 0.01 μg/ml), in test [1] (oxaliplatin 0.1 μg/ml) and in [1] (oxaliplatin 1 μg/ml) were 1%, 1% and 2%, respectively.

B1: murine monoclonal antibody 1F10 (antibody, mouse IgG1, V domains shown)
VH: EVKLLESGGGLVQPGGSLKLSCAASGFDFSRYWMSWVRQAPGKGLEWIGEINPDSSTMNYTPSLKDKFIISRDNAKNTLYLQMSKVRSEDTALYYCARGAYAMDYWGQGTSVTVSS
VL: QAVVTQESALTTSPGETVTLTCRSSTGAVTTSNNANWVQEKPDHLFTGLIGATNNRAPGVPARFSGSLIGDKAALTITGAQTEDEAIYFCALWYINHWVFGGGTKLTVLG
notes: Mouse IgG1, lambda 1, from hybridoma; also called m338-1F10.3
B1: the “relative binding activity (% of WT)” value in [2] stood at 97%; in test [3] it was 93%; in test [4], 92%; in test [5] it was 1%; in test [6], 100%; in [7], 1%. Further, the “relative binding activity (% of WT)” value in test [8] worked out at 63%; in test [9], 100%; in [10], 10%; in test [11] it was 98%; in [12], 94%; in test [13], 95%. Also, the “relative binding activity (% of WT)” value in test [14] amounted to 81%; in [15], 84%; in test [16] it was 93%.

B2: murine monoclonal antibody 1G10 (antibody, mouse IgG1, V domains shown)
VH: QIQLVQSGPELKKPGETVKISCKASGYTFTNYGMNWVKQAPGKGFKWMGWINTYTGEPTYADDFKGRFAFSLETSASTAYLQINNLQNEDMATYFCARWGYDFDYWGQGTTLTVSS
VL: QIVLTQSPAIMSSSPGEKVTMTCSASSSISYMNWYQQKPGTSPKRWIYDTSKLASGVPARFSGSGSGTSYSLTISSMEAEDAATYYCHQRSSYPYTFGGGTKLEIKR
notes: Mouse IgG1, kappa, from hybridoma; also called m290-1G10
Take B2: the “relative binding activity (% of WT)” value in test [2] is 1%; in [3], 44%; in test [4] it was 49%; in test [5] it was 71%; in [6], 96%; in test [7], 95%. Moreover, the “relative binding activity (% of WT)” value in test [8] was found to be 23%; in test [9], 100%; in test [10], 3%; in test [11], 1%; in test [12] it was 17%; in [13], 93%. Also, the “relative binding activity (% of WT)” value worked out at 78% in test [14], 80% in test [15] and 89% in test [16].
